Data: the RNAGym collection of RNA variant scans (doi:10.1073/pnas.2313332121)
Fewer inactive variants are shown than the library holds.

B1: TPR 5TU (parent)
chain: GGAUCUUCUCGAUCUAACAAAAAAGACAAAUCUGCCACAAAGCUUGAGAGCAUCUUCGGAUGCAGAGGCGGCAGCCUUCGGUGGCGCGAUAGCGCCAACGUUCUCAACUAUGACACGCAAAACGCGUGCUCCGUUGAAUGGAGUUUAUCAUG

Variants of: B1
Test: polymerase ribozyme fitness, log enrichment relative to wild type (log ratio); higher = more active; in vitro selection for triplet polymerase activity
Procedure, shortened: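 One round of in vitro selection, in triplicate, was applied to PCR-built, transcribed mutant libraries of each subunit of a heterodimeric triplet polymerase ribozyme. The steps were annealing with a biotinylated primer, partner subunit and triplets, incubation frozen at −7 °C, gel excision of extended constructs, streptavidin-bead capture and RT-PCR. Fitness is the logarithm, base 2, of genotype enrichment over wild-type enrichment from inverse-variance-weighted replicate averages of Illumina-sequenced inputs and outputs, keeping genotypes with ≥10 input reads and ≥1 read per output.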

Variant | polymerase ribozyme fitness (log ratio)
G48A U61A G71A C85G A107U G124U G141U | ≤ -4.2
G48A G50A U56G U148C | ≤ -4.2
A47C U102G A115U A142G U148A | ≤ -4.2
A47G C75G A107U U135A U148C | ≤ -4.2
G48A G88A C105G A115U | -3.86
A47G A52G C87U A98G | -1.52
A47G C63G G74C A120G | ≤ -4.2
G48A C75U C87A C93G | ≤ -4.2
A47C A66U C103G | ≤ -4.2
G46U U56A | -0.107
G48A G59U C87U A97U G136A | -1.99
G48A A49C U53A G100A | ≤ -4.2
A47G G59C G92U C99A C118G | -3.37
G46U C103G G124A U151G | ≤ -4.2
G46C C54U C95U C116U C118G | -2.25
G48A G59A A60G A97G | -3.58
A47C U56A C87A C93G A121U C132G G143A U144C | ≤ -4.2
A47G C87A G126A | ≤ -4.2
G48A C54U G94C | -1.21
A47C G74U A107G A122U | ≤ -4.2
A47C C57A G84U A89C | -1.5
G46C C87U A98G G117U A142U | ≤ -4.2
A47U G94A U134G | -1.69
A47U A97G A98G C116U A150U | 0.886

Variant | polymerase ribozyme fitness (log ratio)
G46C C99G U101G C105G G124A | -2.54
G46C C72U G94A U102C A110G C125G A147C | ≤ -4.2
A47C G50C | -4.1
A47C A73U C118A | -3.14
A47G G74A U101G A121C U145C | ≤ -4.2
A47G U56A U90C G92U U139C | ≤ -4.2
A47C U55G | 0.183
G46A G84A | -2.74
G48A G83U U134C | -1.42
A47C G83C G112C | ≤ -4.2
G46C G59C G88A | ≤ -4.2
A47C C54U G83U A142G | -2.18
A47C U53A G81A U104G | -1.12
G46U A52G C93G | -4.03
G48A U61A C105G | ≤ -4.2
G46U G83U | -2.29
A47U C51U A52C U53G U61A A64U C76U G83U U146C | ≤ -4.2
A47C C85A C96U A97U | ≤ -4.2
A47G G81C G92C C95A A142G | -2.95
G46A U55G C79A C85G A97U | ≤ -4.2
A47U C85A U139G | -1.24
A47G A52U G68U C79A C93U C99A G141C A142G G143U | ≤ -4.2
A47G G84A G128C | -3.37
G48A | -0.217

Variant | polymerase ribozyme fitness (log ratio)
A47C G65C G88A C103A | ≤ -4.2
G46A U135G | -3.27
A47C G81C C99A U134G | -4.06
A47U G86U U134A | -3.84
G48A G80C G94A C96U C99G | -3.97
A47C C57A G94A U144G | 1.12
A47G C54G | -0.785
A47U G124A | 0.304
A47U G92U | -0.338
G48A C57A U127A A142G G143A | ≤ -4.2
A47U C85U | -0.698
A47G U55A A91G | -2.78
G46C U144C | -1.66
A47U C54U C114U | -2.94
G46C C105G | 1.29
A47G G92C C114U | -2.53
G48A G86A A89C G94A U151G | ≤ -4.2
A47U U56A G94A C118U A121U | -0.95
G46U A120U | -0.29
G46U C85U A91C | ≤ -4.2
G46U G59C C96G | -3.41
A47G G50C U82G | ≤ -4.2
G48A G92U C123A | -0.538
G48A U55A C57G A66U G83C U90A C108U G124U | ≤ -4.2

Variant | polymerase ribozyme fitness (log ratio)
A47C C85G U134G | -4.19
G48A C57A U144G | 0.472
A47G U61A | -1.41
A47G C99U | 0.0144
A47U C76U | -0.942
A47C G83U | -1.01
A47U A121U A147C C149U | -3.04
A47G U55G | 0.325
A47U U56A C95U A119U U135A | -2.15
G48A C51U | -1.05
A47C A91C G112C G133C C149U | ≤ -4.2
A47C C95U C116A | -0.555
G48A C85G A98U C99U | -3.36
A47C C85A C118U | -0.946
A47C U82A | -0.366
G48A A52C C85U | -2.93
A47C C95U | 0.141
A47U G50C | -3.22
G46U A52C A89U G94A G133C | ≤ -4.2
A47C G48U C76G C96U A113C | ≤ -4.2
A47C C51U G58C G70A C96U A106U U151C | ≤ -4.2
G46C C114U | -3.67
G46C A52G C63A G71A A110G A113U | ≤ -4.2
G46C G136A | -0.148

Variant | polymerase ribozyme fitness (log ratio)
G48A A60G G84U | -1.73
A47C U61A G140U U145G | ≤ -4.2
G48A A107G | -4.08
G46C C96U A98U A106G | -0.573
A47C A89G C118A G133U | ≤ -4.2
A47C A49C U144G | -4
A47G U53A C57A G84U C99U U134G G141C | ≤ -4.2
G46U G71C C95U A97U A115C G136U | ≤ -4.2
A47U C96A A97G A122C | -1.28
G46C G68A U101G G117U | ≤ -4.2
A47G A52G U56A C87G | ≤ -4.2
A47G G84U A106G | -2.24
A47C A119G | 0.0948
A47U A64G G67A | ≤ -4.2
G48A C87U | -0.447
A47G A91G A97G G112C | ≤ -4.2
A47C G62A G70A U82A C85U G86A G152C | ≤ -4.2
A47U G48U G80C C93U | ≤ -4.2
G46U C93U | -0.878
A47C C69U G80C | ≤ -4.2
A47G A49C A52G G81U G83C U134A | ≤ -4.2
A47U A60C C125U | -2.64
A47U G50C A121U | -3.92
A47C G50C U53A A89G A106U A120C G136A | ≤ -4.2

Variant | polymerase ribozyme fitness (log ratio)
A47U G86A | -1.08
A47G G58C G65A G141U | -1.24
G46A U61G C103A C118G | ≤ -4.2
A47C G50A U102C U146A | -2.55
G46C C75U G88A A106U C116G | ≤ -4.2
A47C G62U C99G G143U | ≤ -4.2
G48A C96U A98G | -0.496
G48A C87U A91U C93U | ≤ -4.2
G48A C108U | ≤ -4.2
A47C G84A | -0.485
G48A C72G | ≤ -4.2
A47C G59A G84U G94U G124A | -3.56
A47C U56A A60G C85U C96U A150U | -0.791
A47U C54U C93U | -2.08
A47C U134G G136A | -0.632
A47C C57A G84C G86U U146C C149U | ≤ -4.2
G48A G83U A98G G140C | ≤ -4.2
G46U C72A U90G A97G G100A U104A A107G G124C | ≤ -4.2
A47C C93U | -1.69
G46C C54U G94A C99A A142U U151C | ≤ -4.2
G48A U61A A91C C131A U139C | ≤ -4.2
G46A G67A G84U A97G C99U C116U | ≤ -4.2
G46C A49U C72U C116U | ≤ -4.2
A47C G50U G58U A91G A97U U102A | ≤ -4.2

Variant | polymerase ribozyme fitness (log ratio)
A47C G94A | -2.54
G48A G88A U134C U144G | ≤ -4.2
A47G A52C A97U | -1.2
G46C C54U A66G G94A C95A G143A | ≤ -4.2
A47U U55A G141U | -1.14
G48A A49U G70U C75A G88A | ≤ -4.2
A47G C114U | -2.4
A47C A49G | -0.809
A47U U61A C75A C76U G88U | ≤ -4.2
G46C G50U A52C A60U G80C C95U A150G | ≤ -4.2
G48A G59A G88C A106G U148C | ≤ -4.2
G46C U61G G81C C114U C116G A147G | ≤ -4.2
A47C C129G | -4.19
G48A C76G C87A U90A U146A | ≤ -4.2
A47C A49G G83A G140A | ≤ -4.2
A47G G50A C85U C99A G124C U127G | ≤ -4.2
G46C A49C U56A C57U G62A C63A C69U G86C C99U G141C U145G C149U A150U | ≤ -4.2
G46A G84U C99A A110C C114U U146C | ≤ -4.2
G48A G59U G94A C114A C125A | ≤ -4.2
G46A U56G A91G U148A | ≤ -4.2
A47U A73U A147C | -2.13
A47G U102C A142C C149U | ≤ -4.2
A47C U78A C131U U145A | ≤ -4.2
